B1: Sp1 site -403/-382 probe (Sp1_EMSA2) (dsDNA)
DNA 1: CGGGGCCCCGCCCGGGCCAGCC
DNA 2: GGCTGGCCCGGGCGGGGCCCCG
B2: Sp1 site -336/-315 probe (Sp1_EMSA3) (dsDNA)
DNA 1: GGGGGCCTCGCCCCTTTGGGGC
DNA 2: GCCCCAAAGGGGCGAGGCCCCC
B3: Sp1 consensus probe (Sp1_EMSA1) (dsDNA)
DNA 1: ATTCGATCGGGGCGGGGCGAGC
DNA 2: GCTCGCCCCGCCCCGATCGAAT

molecular target: Sp1 (recombinant, Sigma-Aldrich SRP2030) (UniProt P08047 1-785); assay: EMSA
Sequence (P08047 whole entry): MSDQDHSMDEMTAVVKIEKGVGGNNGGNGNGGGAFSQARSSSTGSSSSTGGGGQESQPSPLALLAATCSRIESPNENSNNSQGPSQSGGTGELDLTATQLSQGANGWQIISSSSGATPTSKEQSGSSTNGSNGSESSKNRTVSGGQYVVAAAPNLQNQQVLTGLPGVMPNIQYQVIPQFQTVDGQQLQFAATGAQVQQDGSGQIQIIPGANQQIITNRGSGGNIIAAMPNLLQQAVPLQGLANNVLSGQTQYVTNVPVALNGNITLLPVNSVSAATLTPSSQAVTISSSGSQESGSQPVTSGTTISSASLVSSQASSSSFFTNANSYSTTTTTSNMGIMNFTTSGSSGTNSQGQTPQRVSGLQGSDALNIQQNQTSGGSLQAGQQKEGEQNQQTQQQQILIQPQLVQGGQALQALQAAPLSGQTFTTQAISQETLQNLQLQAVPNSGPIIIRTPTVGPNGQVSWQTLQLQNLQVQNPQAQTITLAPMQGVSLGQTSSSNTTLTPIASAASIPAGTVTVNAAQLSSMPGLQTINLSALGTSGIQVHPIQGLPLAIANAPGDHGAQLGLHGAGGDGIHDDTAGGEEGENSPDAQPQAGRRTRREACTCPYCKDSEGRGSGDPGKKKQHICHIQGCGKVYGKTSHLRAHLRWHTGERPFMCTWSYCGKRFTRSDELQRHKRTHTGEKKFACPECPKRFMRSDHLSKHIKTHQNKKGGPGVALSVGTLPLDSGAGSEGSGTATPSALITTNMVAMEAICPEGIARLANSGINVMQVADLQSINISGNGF

Binding result, binds:
B1
B2
B3

From PMC4515812
